Measurements published in article PMC6258048 (Biochemical and biophysical research communications, 2014).

B1: Tcf3 (Transcription factor 3) DNA binding B-HLH domain (domain or fragment)
chain: MGHMVHRPWIQDEVLSLEEKDLRDRERRMANNARERVRVRDINEAFRELGRMCQLHLKSDKAQTKLLILQQAVQVILGLEQQVRERNLNPKAACGGRTRIVSAHNSENEL
B2: Ascl1 (Achaete-scute homolog 1) DNA binding B-HLH domain (domain or fragment)
chain: MASGFGYSLPQQQPAAVARRNERERNRVKLVNLGFATLREHVPNGAANKKMSKVETLRSAVEYIRALQQLLDEHDAVSAAFQAGVLSPEL

Legend:
[1] = target: the molecule itself; assay: CD thermal denaturation
[2] = target: T1, Tcf4 (Transcription factor 4) DNA binding B-HLH domain; assay: native gel or EMSA
T1 chain: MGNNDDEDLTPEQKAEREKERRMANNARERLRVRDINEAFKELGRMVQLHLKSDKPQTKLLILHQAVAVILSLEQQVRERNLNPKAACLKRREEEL

[3] = target: Tcf12 (Transcription factor 12) DNA binding B-HLH domain; assay: native gel or EMSA
[4] = target: B1; assay: native gel or EMSA

Row | Binder | binding result [1] | binding result [2] | binding result [3] | binding result [4]
1 | B1 | binds |  |  | 
2 | B2 |  | binds | binds | binds
